Measured values from the nanobody polyreactivity screen of Harvey et al. (2022).

assay: yeast display, Sf9 membrane polyspecificity reagent, FACS + sequencing; frameworks hold sequencing errors
Method in brief: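 After 36–48 hours of galactose induction, yeast (Saccharomyces cerevisiae BJ5465) displaying a synthetic nanobody library were stained at 4 °C for 1 hour with 10% biotinylated, detergent-solubilized Sf9 membrane reagent. Streptavidin microbeads enriched the stained cells before FACS sorting into low and high (top ~1%) gates on anti-HA and streptavidin fluorescence. Each clone's polyreactivity label reflects its gate of origin.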

| Sequence | polyreactivity (PSR sort gate) |
| --- | --- |
| QVQLVESGGGLVQAGGTLRLSCAASGFIIPGYAMGCYRQAPGKERELVAAISGRGGSTYYADSVKGRFTISRDNAKNTVYLQMNSLKPEDTAVYYCNADWQDDLAGYDVDYWGQGTQVTVSS | low polyreactivity |
| QVQLVESGGGLVQAGGSLRLSCADSGSTFGFYAMGWYRKAPGKERELVAAISSSGSTYYADSVKGRFTISRDNAKNTVYLQMNILKPEDTAFYSCGAHPGYYDYDYWGQGTQVTVSS | low polyreactivity |
| QVQLVESGGGLVQSGGSLRLICAASGRNYAMGWYRQAPGKERELVARITKSGTSTYYADSVKGRFTISRDNAKNTVYLQMNSLKPEDTAVYYCNARYWGYWGDHYDYWGQGTQVTVSS | high polyreactivity |
| QVHLVESGGGLVQAGGSLRLSFDASGRIFYRNVMGWYRQAPGKERELVATITWGGSTYYADSVKGRFTISRYNEKNTVYLQMNSLKPEDTAVYYCATVRSRLFGQYYYWGQGTQVTVTS | high polyreactivity |
| QVKLVESAGGLVQAGCSLRLSCAASGSIFLKNAKGWYRQSPGKERELVAGITTRGSTYYADSVKGRFTISRDNAKNTVYLQMNSLKPEDTAVYYCAKRDVGYQTRYFYWGQGTQVTVSS | high polyreactivity |
| QVQLVESGGGLVQAGGSLRLSCAASGFTFDYYAMGWYRQAPGKERELVAAISSSGGSTYYADSVKGRFTISRDNAKNTVYLQMNSLKPADTAVYYCGTGHSKKYDYWGQGTQVTVSS | high polyreactivity |
| QVQLVESGGGLVQAGGSLSLSCAASGRNFTIYAMGWYIQAPGKEREMVAGITRSGGRTYYADSVKGRFTISRDNAKNTVYLQMNSLKPEDTAVYYCNRVFYSGYRGQGHSYESWGQGTQVTVSS | high polyreactivity |
| QVQLVESGGGLVQAGGSLRLSCAASGSTSPGYAMGWYRQAPGKERELVAAITWNGGSTYYADSVKGRFTISRDNAKNTVYLQMNSLKPEDTAVYYCNKLSGYGWRSYGYWGQGTQVTVSS | high polyreactivity |
| QVQLVESGGGLVQAGGSLRLSCAASGFTFPFYTMGWYRQAPGKERELVAAITRSGASTFYADSVKGRFTISRDNAMNTVYLQMNSLKPEDTAVYYCATQLHRYYQDDYWGQGTQVTVSS | high polyreactivity |
| QVQLVESGGGLVQAGGSLRLSCAASGIIFRWYAMGWYRQAPGKERELVAAISRSGSSTYYADSVKGRFTISRDNAKNTVYLQMNSLKPEDTAVYYCNAEYQAPTEKGRYYYPWPYEYWGQGTQVTVSS | high polyreactivity |
| QVQLVESGGGLVQAGGSLRLSCAASGRTFVRYAMGWYRQAPGKERELVAAISLRGGRTYYADSVKGRFTISRDYANNTVYLQMNSRNPEDTAVYYCAARSYPTGASFDYWGQGTQVTVSS | high polyreactivity |
| QVHLVESGGGLDQAGGSLRLSCAASGRIFPLYAMGWYRQAPGKERELVAAISSGGTTYYADSVKGRFTISRDNAKNTVYLQMHSLKPEDTAVYYCARRPAQRWGRFDYWGQGTQVTVSS | low polyreactivity |
| QVQLVESGGGLVQAGGSLRFSCDASGRSFYINAMGWYRQAPGKERELVAAITWSGGRTYYADSVKGRFTISRDNAKNTVYLQMNSLKPEDTAVYYCNTRSYSFYVPYRYDYWGQGTHVTVSS | high polyreactivity |
| QVQLVESGGGLVQAGGSLRLSCAASGRIFVGDAMGWYRQAPGTERELVAAISRDGDNTFYADSVKGRFTISRDNAKNTVYLQMNSLKPEDTAVYYCAVDYWVWYGSAYAYDYYWGQGTQVTVSS | low polyreactivity |
| QVQLVESGGGLVQAGGSLRLICAASGSIFSIYAMGWYRQAPGKERELVAAITWGGGSTYYADSVKGRFTISRDNAKNTVYLQINSLKPEDTAVYDCAAESLTWYGTYYYWGQGTQVTVSS | high polyreactivity |
| QVQLVESGGGLVQAGGSLRLSCAASGRTFESYAMGWYRQAAGKERELVAAIRSRGGSTNYADSVKGRFTISRDNAKNTVYLQMNSLKPEDTAVYYCNKDGTWVARAVTYADFDYWGQGTQVTVSS | low polyreactivity |
| QVQLVESGGGLVQAGGSLRLSCAASGITFRFYALGWYRKAPGKEREFVAAISSRGGRTYYADSVKGRFTISRDHAKNTVYLQMNSLKPEDTAVYYCAADFYYRTVATVTSVARYDYWGQGTQVTVLS | high polyreactivity |
| QVQLVESGGGLVQAGGSLRLSCAASGSTFRYYAMGWYRQAPGKERELVAAISTSGGRTYYADSVKGRFTISRDNAKNTVYLQMNSLKPEDTAVYYCNARESRGYSDQTWKYYYWGQGTQVTVSS | high polyreactivity |
| QVQLVESGGGLVQAGGSLRLSCAASGAIFYYYCMGWYRQAPGKEREWVAGISSRGGRTYYADSVKGRFTISRDNAKNTVYLQMNSLKPVDTAVYYCAADRYYYAYRYFPSGYWGQGTQVTVSS | low polyreactivity |
| QVQLVESGGGLVQAGGSLLLSCAASGSTFAPYAMAWYRQAPRKERELVATISASGGTTYYADSVKGRFTISRDNAKNTVYLQMNSLKPEDTAVYYCAKRRVWWPAHRSYLYASEFGYWGQGTQVTVSS | low polyreactivity |
| QVQLVESGGGLVQAGGSLRLSCAASGRIFWYYAMGWYRQAPGKERELVDAISVDGGSTYDADSVKGRFTISRDNAKNTVYLQMNSLKPEDTAIYYCAAQKYPGFTHGYWGQGTQVTVSS | low polyreactivity |
| QDQLVESGGGLDQAGGRLRLSCAASGFTFGRNAMGWYRPAPGKERELDAASSWSGGSTYYADSVKGRFTISRDYAKNTVYVQMNSLKPEDTAVYYCNKRSRLGRGNRDYWGQGTQVTVSS | high polyreactivity |

| Sequence | polyreactivity (PSR sort gate) |
| --- | --- |
| QVQLVESGGGLVQAGGSLRLSCAASGSTFNGYVMGWYRQAPGKERELVAAISRSGGSTYYADSVKGRFTISRDNAKNTVYLQMYSLKPEDTAVYYCAKGGYQHYWGQGTQVTVSS | high polyreactivity |
| QVQLVESGGGLVQAGGRLRLTCAASGLTFERHAMGWYSQARGKERDVVAAWSGGGTYYADSVKGRFTISRDNAKNTVYLHLNSLKPQDTAVYYCAADYRYYLSIGVNSWGQGTQVTVSS | low polyreactivity |
| QVQLVESGGGLVQAGGSLRLSCAASGFTFHYYTMGWYRQAPGKERELVASINYSGGRTYYADSVKGRFTISRDNAKNTVYLQMNSLKPEDTAVYYCNARYKSTYYYWGQGTQVTVSS | high polyreactivity |
| QVQLVESGGGLVQAGGSLRLSCAASGFIFYQYAMGWYRQAPGKERELVAAISWGGGSTYYADSVKGRFTISRDNAKNTVYLQMNSLKPEDTAVYYCAATGLGWHSYHEYDYWGQGTQVTVSS | low polyreactivity |
| QVQLVESGGGLVQAGGSLRLSCAASGFTFTPNAMGWYRQAPGKERELVAVITWNGGTTYYADSVKGRFTISRDNAKNTVYLQMNSLKPEDTAVYYCNADGLILYDYWGQGTQVTVSS | low polyreactivity |
| QVQLVESGGGLVQAGGSLRIRCAASGRIFPYYAMGWYRQAPGKERDLVATITSGGSTYYADTVKGRFTISRDNSKNTVYLQMKSLKPEDTAVYYCAARYPSIYYYRYDFWGQGTQVTVSS | high polyreactivity |
| QVQLVESGGGLVQAGGSLRLICGASGLTSWYNAMGWYRQAPGKEREFVAAISFSGGRTFYADSVKGRFTISRDNAKNTVYLQMNSLKPEDTAVYYCNADVYGFDYWGQGTQVTVSS | high polyreactivity |
| QVQLVESGGGLVQAGGSLRLSCAASGSTFWSYAMGWYRQAPGKERELVAAITSGGRTYYADSVKGRFTISRDNAKNTVYLQMNSLKPEDTAVYYCNAVVRHTYRRFDYWGQGTQVTVSS | high polyreactivity |
| QVQLVESGGGLVQAGGSLRLSCAASGFTFSTNAMGWYRQAPGKERELVAAITWRGGSTYYADSVKGRFTISRDNAKNTVYLQMNSLKPEDTAVYYCARRSRGSHVSYYKKFDYWGQGTQVTVSS | low polyreactivity |
| QVQHVESGGGLVQAGGSLRLSCAASGSIFWVYVMGRYIQAPGQERELVAAITNGGSTDYADSVKGRFTISRDNAKNTVYLQMNSLKPEDTAFYYCAKRSTIWGRILITFDYWGQGTQVTVSS | low polyreactivity |
| QVQLVESGGGVVQAGGSLRLSCAASGMGWYRQAPGKERELVATITTGGTYADSVKGRFTISRDNAKNTVYLQMNSLKPEDTAVYYCAADGLGSVYYLRYNYWGQGTQVTVSS | low polyreactivity |
| QVQLVESGGGLVKAGGSLRLSCAASGSIFPFYAMGSYRQAPGKERELVATISWSGGRTYYADSVKGRFTISRDNAKNTVYLQMNSLKPEDTAVYYCAAGSYHYPNAYYYWGQGTQVTVSS | high polyreactivity |
| QVQLVESGGGLVQAGGSLRLSCAASGITFYWYAMGWYRQAPGKERELVAAITRSVGSTYYADSVKGRFSISRDNAKNPVYLQMNSLKPEDTAVYYCAADFYYYGFDYWGQGTQVTVSS | low polyreactivity |
| QVQLVESGGGLVQAGGSLRLSCAASGRTFRCYAMGWYRQAPGKETELVAAITFSGGSTYYADSVKGRFTISRDNAKNTVYLQMNSLKPEDTAVYYCNAVYYRRKEYDYWGQGTQVTVSS | high polyreactivity |
| QVQLVESGGGLVQAGGSLRLSCAASGSIDGYAMGWYRQAPGKERELVAAISKGGGNTYYADSVKGRFTISRDNAKNTVYLQMNSLKPEDTAVYYCAARRQIIWGQGTQVTVSS | high polyreactivity |
| QFQLVESGGGVVQAGGSLRLSCAASGYTFYIYARGWYRQAPWKERELVAAISWTDGSTYYADSVKGRFTISRDNAKNTVYLQMNSLKPEDTAVYYCAKTSLYAGAKEYDYWGQGTQVTVSS | low polyreactivity |
| QFQLVESGGGLVQAGGSLRLSCAASGFTFYRNAMGWYRQAPGKERELVAAITSTGSTNYADSVKGRFTISRDNAKNTVYLQMNSLKPEDTAVYYCNKRRFGRQGMDYWGQGTQVTVSS | low polyreactivity |
| QVQLVESGGGLVQAGGSLRLSCAASGRILPYYAMGWYRQAPGKERELVAAITSGGSTYYADSVKGRFTISRDNAKNTVSLQMNSLKPEDTAVYYCATDVDKSLYDYWGQGTQVTVSS | low polyreactivity |
| QVQLVESGGGLVQAGGSLRLSCAAYGSIFDANAMGWYRQAPGKEREFLAAINCTGGSTYYAESVKGRFTISRDYAKNTVYLQMNILKPEDTAGYYCAAEWWYQNNPEIYYYWGQGIQVTVSS | high polyreactivity |
| QVQLVESGGGLVQAGGSLRLSCAASGFTFESNAMGWYRQAPGKERELVAAITSSGGRTYYADSVKGRFTISRDNAKNTVYLQMNSLKPEDTAVYYCAATGKAPRESGGVYSMDWGQGTQVTVSS | low polyreactivity |
| QVQLVESGGGLVQAGGSLRLSCAASGRTFLYYAMGWYRQAPGKERELVAAITWSGGSTYYADSVKGRFTISRDNAKNTVYLQMNSLKPEDTAVYYCAALGWIDWYWQPGMDYWGQGTQVTVSS | high polyreactivity |
